Laboratory results taken from PMC7725843, “Structural and biochemical analyses of an aminoglycoside 2′-N-acetyltransferase from Mycolicibacterium smegmatis” (Scientific Reports, 2020).

Molecular target: the molecule itself
Assay: AUC; analytical ultracentrifugation of apo-AAC(2′)-Id; 20 mM Tris-HCl (pH 8.0), 150 mM NaCl, 293 K, 40,000 rpm, monitored at 280 nm, SEDFIT

B1: Aminoglycoside 2′-N-acetyltransferase from Mycolicibacterium smegmatis [AAC(2′)-Id] (enzyme)
chain: MLTQHVSEARTRGAIHTARLIHTSDLDQETRDGARRMVIEAFRDPSGDSDFTDDFTDDDWDHALGGMHALISHHGALIAHGAVVQRRLMYRGPDGRGHALRCGYVEAVAVREDRRGDGLGTAVLDALEQVIRGAYQIGALSASDIARPMYIARGWLSWEGPTSVLTPTEGIVRTPEDDRSLFVLPVDLPDGLELDTAREITCDWRSGDPW
notes: also called apo-AAC(2′)-Id; AAC(2′) from M. smegmatis; source: E. coli BL21(DE3), purified (Ni-NTA, Q-Sepharose, thrombin cleavage, Superdex 200); not shown: His-tag, N-terminal, cleaved
- stoichiometry N: 2
